T1: angiotensin-converting enzyme (ACE) from rabbit lung (rabbit) (UniProt P12822)
T1 sequence: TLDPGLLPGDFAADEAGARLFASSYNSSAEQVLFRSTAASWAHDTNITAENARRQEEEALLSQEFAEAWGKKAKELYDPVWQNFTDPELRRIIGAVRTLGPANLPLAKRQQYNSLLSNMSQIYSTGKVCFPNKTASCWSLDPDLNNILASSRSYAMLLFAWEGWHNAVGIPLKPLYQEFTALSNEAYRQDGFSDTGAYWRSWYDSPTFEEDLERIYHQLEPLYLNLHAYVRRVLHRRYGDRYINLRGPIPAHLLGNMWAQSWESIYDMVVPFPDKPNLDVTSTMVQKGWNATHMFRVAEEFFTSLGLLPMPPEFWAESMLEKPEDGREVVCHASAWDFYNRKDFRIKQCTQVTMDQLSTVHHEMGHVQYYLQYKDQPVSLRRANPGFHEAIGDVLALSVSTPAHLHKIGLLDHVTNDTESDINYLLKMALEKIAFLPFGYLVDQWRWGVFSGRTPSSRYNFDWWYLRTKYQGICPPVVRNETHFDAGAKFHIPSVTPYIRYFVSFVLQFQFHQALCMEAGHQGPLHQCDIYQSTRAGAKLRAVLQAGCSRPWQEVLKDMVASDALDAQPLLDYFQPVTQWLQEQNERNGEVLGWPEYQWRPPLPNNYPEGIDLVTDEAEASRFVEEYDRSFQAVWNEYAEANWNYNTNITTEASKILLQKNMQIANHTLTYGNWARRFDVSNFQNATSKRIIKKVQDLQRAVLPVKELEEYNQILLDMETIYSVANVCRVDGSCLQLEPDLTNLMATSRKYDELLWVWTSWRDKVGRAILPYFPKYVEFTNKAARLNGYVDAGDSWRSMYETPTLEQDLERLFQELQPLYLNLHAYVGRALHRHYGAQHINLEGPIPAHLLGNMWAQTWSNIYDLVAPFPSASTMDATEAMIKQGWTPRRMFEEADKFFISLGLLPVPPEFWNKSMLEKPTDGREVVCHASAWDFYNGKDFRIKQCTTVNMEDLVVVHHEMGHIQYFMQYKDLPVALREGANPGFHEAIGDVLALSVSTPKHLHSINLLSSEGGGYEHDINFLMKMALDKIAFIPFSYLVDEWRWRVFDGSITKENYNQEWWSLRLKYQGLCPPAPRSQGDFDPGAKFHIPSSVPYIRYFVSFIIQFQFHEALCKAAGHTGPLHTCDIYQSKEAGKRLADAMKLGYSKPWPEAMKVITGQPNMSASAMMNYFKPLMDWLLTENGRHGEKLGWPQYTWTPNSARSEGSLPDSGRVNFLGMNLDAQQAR

B1: … (peptide)
peptide: STGEAFVQFASQEIAEK
B2: … (peptide)
peptide: TTPSYVAFTDTER
B3: … (peptide)
peptide: QFQPGFSSS
B4: VALSSLRP (peptide)
peptide: VALSSLRP
B5: … (peptide)
peptide: NPDDITNEEYGEFYK

This test addresses T1, angiotensin-converting enzyme (ACE) from rabbit lung (rabbit).
For the molecule B1, the ACE inhibitory activity (substrate HHL, hippuric acid by HPLC), peptide at 1 mg/mL is 1.57%. Same read-out and setting: to B2 belongs 26.7%; to B3, 40.9%. With B4, the ACE inhibitory activity (substrate HHL, hippuric acid by HPLC), peptide at 1 mg/mL was 91.7% and the IC50 of ACE inhibitory activity (substrate HHL, hippuric acid by HPLC) was found to be 39 µg/mL. Take B5: the ACE inhibitory activity (substrate HHL, hippuric acid by HPLC), peptide at 1 mg/mL is 2.81%.

The values above are taken from article PMC9818667.
